Data reported in publication PMC12817928, “Demonstration of in vivo efficacy, cryo-EM-epitope identification, and breadth of two anti-alphavirus bispecific single domain antibodies” (Journal of Virology, 2025).

Key:
Assay in all cases: cryo-EM structure
Settings in all cases: both partners purified
[1] = target: T1, VEEV E1 envelope glycoprotein (strain TC83), in the VLP (Venezuelan equine encephalitis virus, …)
T1 construct: also called E1 subunit
T1 chain 1: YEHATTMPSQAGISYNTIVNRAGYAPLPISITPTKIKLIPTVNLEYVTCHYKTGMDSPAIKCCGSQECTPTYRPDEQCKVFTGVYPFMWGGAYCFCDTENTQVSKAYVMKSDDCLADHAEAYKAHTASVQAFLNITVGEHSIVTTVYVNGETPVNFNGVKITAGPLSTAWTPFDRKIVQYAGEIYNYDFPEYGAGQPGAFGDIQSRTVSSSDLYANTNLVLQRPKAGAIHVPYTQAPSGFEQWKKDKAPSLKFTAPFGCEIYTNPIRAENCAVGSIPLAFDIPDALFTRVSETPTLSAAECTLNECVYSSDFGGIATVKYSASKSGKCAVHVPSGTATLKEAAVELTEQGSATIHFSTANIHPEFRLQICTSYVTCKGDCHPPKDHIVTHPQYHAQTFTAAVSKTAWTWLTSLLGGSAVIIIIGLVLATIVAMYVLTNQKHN
T1 chain 2: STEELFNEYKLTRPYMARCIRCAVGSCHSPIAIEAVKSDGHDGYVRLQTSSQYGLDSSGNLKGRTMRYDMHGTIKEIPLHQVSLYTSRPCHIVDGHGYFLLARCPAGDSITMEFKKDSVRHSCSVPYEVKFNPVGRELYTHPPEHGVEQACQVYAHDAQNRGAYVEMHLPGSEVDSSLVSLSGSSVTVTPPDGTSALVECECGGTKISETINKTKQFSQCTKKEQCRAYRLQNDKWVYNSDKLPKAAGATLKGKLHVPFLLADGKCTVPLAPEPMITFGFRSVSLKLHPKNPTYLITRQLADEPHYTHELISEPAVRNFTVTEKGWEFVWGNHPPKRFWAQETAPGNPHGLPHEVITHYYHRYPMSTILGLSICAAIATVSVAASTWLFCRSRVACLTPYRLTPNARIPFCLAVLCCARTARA

[2] = target: T2, VEEV E2 envelope glycoprotein (strain TC83), in the VLP (Venezuelan equine encephalitis virus, …, strain)
T2 construct: also called E2 subunit
T2 chain 1: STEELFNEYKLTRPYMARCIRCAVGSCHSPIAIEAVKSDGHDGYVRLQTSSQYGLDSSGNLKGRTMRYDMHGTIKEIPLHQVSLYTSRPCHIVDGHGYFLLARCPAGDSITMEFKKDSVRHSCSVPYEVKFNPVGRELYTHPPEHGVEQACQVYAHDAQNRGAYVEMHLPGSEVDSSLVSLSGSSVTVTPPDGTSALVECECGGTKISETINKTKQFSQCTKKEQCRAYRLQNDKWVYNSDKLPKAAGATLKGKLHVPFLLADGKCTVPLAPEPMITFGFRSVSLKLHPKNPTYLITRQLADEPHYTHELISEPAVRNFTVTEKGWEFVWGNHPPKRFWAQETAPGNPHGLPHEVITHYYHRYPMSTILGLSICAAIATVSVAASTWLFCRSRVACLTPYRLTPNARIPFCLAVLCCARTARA
T2 chain 2: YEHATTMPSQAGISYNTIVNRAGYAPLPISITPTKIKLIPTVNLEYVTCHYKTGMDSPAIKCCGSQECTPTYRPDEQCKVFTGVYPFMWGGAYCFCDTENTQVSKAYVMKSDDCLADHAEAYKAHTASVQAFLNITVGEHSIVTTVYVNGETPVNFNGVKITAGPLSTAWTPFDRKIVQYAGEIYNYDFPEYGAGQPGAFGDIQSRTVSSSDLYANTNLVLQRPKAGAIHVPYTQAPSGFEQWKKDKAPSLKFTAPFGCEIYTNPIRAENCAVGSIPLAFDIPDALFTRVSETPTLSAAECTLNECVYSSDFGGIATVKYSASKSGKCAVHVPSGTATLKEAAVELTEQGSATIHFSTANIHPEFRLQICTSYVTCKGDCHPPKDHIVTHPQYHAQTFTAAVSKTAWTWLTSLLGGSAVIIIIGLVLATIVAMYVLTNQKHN

[3] = target: T3, VEEV virus-like particle (VLP), strain TC83 (subtype IAB) (Venezuelan equine encephalitis virus, …, strain)
T3 construct: also called VEEV VLP; VEEV IAB VLP
T3 chain 1: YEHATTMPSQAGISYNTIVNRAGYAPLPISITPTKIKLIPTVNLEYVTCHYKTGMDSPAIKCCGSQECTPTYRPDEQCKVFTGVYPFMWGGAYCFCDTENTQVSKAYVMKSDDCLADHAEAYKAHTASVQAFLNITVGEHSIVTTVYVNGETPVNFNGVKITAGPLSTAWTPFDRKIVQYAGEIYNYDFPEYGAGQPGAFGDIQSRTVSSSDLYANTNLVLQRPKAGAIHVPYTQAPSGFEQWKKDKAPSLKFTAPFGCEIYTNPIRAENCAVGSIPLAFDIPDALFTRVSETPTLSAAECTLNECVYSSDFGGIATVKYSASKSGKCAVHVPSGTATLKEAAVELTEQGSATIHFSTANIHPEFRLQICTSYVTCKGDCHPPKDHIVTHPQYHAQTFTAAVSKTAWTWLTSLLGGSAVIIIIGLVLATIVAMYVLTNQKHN
T3 chain 2: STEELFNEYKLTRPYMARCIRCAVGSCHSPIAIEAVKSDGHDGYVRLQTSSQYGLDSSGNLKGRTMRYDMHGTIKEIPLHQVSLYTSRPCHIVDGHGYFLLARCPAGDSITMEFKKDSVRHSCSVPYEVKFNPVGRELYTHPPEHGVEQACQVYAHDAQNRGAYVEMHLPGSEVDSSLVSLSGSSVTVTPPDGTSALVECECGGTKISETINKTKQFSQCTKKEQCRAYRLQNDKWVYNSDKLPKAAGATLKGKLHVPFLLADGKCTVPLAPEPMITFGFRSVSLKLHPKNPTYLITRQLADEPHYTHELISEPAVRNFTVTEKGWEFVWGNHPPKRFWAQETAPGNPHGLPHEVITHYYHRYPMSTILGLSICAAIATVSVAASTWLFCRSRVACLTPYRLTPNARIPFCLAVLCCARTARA

Measured: binding result

B1: sdAb V2C3 (VHH)
VHH: DVQLQASGGGSVQAGGSLRLSCVASQNLFEYYTMGWYRQVPGSQRERVALINNGGSNVAGSVEGRFTISRDNAKNSIYLQMNNLKPEDSAVYYCRAFGPADYWGQGTQVTVSS
notes: source: ClearColi BL21(DE3), purified (Ni Sepharose, MEP HyperCel, SEC)
binds: [1] | [2] | [3]

B2: sdAb V3A8f (VHH)
VHH: DVQLQASGGGSVQAGGSLRLSCAASGHSFANYHVAWIRQTPGKEREFVGSASRRDDSTYYADFALGRFIISRDNDINTAYLQMNSLKPEDSAVYYCVAAVMAQTTQGWTTDYDLRGQGTQVTVSS
binds: [1] | [2] | [3]

B3: sdAb V2B3 (VHH)
VHH: EVQLQASGGGLVQAGGSLRLSCAASGSIVSINVMAWYRQSPGKERELVAKSSGPFTLYADSVKGRFTISNDAAKNTVDLQMNSLKPEDTAVYYCNAEGLRYPSGTYGPSAVWGQGTQVTVSS
notes: as for B1
binds: [1] | [2] | [3]
